Source: patent US20100233154A1, “TARGETED BINDING AGENTS DIRECTED TO HEPARANASE AND USES THEREOF 463” (MedImmune Limited, priority 2008, published 2010)

T1: human heparanase (Homo sapiens, UniProt Q9Y251)
T1 sequence (Q9Y251 36-543): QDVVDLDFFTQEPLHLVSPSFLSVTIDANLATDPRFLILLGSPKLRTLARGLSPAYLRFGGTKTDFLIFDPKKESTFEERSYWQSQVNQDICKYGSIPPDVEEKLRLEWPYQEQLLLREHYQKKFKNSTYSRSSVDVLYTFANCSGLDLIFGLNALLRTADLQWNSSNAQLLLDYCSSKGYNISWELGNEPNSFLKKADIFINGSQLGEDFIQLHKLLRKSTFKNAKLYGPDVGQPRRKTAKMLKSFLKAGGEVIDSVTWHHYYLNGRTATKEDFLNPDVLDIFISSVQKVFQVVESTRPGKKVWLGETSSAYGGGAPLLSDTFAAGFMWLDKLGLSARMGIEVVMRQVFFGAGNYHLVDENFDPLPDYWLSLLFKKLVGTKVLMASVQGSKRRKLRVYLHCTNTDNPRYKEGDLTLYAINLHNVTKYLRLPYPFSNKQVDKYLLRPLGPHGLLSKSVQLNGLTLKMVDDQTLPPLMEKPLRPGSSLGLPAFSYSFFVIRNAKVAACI

T2: murine heparanase (Mus musculus, UniProt Q6YGZ1)
T2 construct: made in house; host or cells: Hek293 cells (conditioned medium), inferred for the ELISA
T2 sequence (Q6YGZ1 28-535): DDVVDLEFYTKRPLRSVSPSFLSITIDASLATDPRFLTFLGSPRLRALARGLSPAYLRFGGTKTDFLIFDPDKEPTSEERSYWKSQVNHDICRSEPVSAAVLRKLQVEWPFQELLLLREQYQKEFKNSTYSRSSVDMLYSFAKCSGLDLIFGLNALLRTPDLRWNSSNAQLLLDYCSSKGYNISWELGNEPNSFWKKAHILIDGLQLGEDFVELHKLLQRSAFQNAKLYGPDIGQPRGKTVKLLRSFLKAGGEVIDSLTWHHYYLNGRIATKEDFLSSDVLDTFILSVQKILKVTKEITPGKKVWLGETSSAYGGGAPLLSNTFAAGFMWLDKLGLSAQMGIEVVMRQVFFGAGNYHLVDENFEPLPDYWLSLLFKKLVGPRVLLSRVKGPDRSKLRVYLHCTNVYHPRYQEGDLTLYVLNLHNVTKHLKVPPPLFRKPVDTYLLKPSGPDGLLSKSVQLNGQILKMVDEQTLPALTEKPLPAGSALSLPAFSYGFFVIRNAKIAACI

T3: recombinant human heparanase (Homo sapiens, UniProt Q9Y251)
T3 construct: Heparanase 8 and 50 kDa sub-units were cloned into pacGP67 as Sma 1-EcoR1 fragments; made in house; host or cells: Hi5 insect cells, baculovirus (pFastBac Dual)
T3 sequence (Q9Y251 158-543 limits assumed): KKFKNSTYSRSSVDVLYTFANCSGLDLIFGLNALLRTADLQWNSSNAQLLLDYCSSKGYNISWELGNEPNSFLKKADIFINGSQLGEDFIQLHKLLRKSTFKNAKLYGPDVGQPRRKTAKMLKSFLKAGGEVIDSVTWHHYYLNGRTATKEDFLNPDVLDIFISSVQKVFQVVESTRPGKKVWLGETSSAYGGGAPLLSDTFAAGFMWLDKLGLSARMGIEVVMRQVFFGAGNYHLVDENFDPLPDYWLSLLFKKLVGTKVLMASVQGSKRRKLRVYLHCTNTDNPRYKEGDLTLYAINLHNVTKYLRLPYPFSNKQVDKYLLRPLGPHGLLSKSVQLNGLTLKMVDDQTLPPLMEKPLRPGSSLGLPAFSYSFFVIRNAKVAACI
T3 sequence (Q9Y251 36-109 limits assumed): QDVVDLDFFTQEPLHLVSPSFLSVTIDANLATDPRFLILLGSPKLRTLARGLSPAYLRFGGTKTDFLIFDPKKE

T4: recombinant heparanase captured with rabbit anti-heparanase antibody (Homo sapiens, UniProt Q9Y251)
T4 construct: Heparanase 8 and 50 kDa sub-units were cloned into pacGP67 as Sma 1-EcoR1 fragments; made in house; host or cells: Hi5 insect cells, baculovirus (pFastBac Dual)
T4 sequence (Q9Y251 158-543 limits assumed): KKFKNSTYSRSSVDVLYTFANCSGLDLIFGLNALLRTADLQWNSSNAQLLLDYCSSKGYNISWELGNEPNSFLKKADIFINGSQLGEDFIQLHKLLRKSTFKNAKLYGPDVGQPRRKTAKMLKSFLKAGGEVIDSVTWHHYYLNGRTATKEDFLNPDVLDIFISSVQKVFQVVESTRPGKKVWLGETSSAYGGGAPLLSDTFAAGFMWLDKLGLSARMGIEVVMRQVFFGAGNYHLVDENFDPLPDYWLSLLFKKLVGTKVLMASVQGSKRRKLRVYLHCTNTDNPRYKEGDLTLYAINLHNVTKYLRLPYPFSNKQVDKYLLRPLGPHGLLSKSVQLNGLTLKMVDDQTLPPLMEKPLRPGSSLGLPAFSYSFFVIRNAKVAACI
T4 sequence (Q9Y251 36-109 limits assumed): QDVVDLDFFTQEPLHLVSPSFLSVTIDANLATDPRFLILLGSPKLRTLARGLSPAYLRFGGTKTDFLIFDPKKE


Assays:
cynomolgus heparanase = assay: Cross species capture ELISA, cynomolgus heparanase; assay type: binding; conditions: min 0.06, max 1.5 OD units
Experimental: (§1) Initially, cross species binding to human, murine and cynomolgus heparanase was determined in an ELISA assay in which heparanase was captured onto plates using a rabbit anti-heparanase antibody (Raybiotech, Cat. IP-14-155). Exhaustive supernatants were added to the plates at a final dilution of 1:5 and bound antibody detected with a rabbit anti-human IgG Fc.

human heparanase = molecular target: T1, human heparanase; assay: Cross species capture ELISA, human heparanase; assay type: binding
Experimental: as §1

murine heparanase = molecular target: T2, murine heparanase; assay: Cross species capture ELISA, murine heparanase; assay type: binding; conditions: min 0.06, max 0.9 OD units
Experimental: as §1

[1] = molecular target: T3, recombinant human heparanase; assay: ELISA binding to directly coated recombinant human heparanase
Experimental: (§2) Titres of antibodies from Campaigns 1 and 2 were determined in an ELISA. Costar 3368 medium binding plates were coated directly with recombinant human heparanase or plates were coated with Rabbit anti-heparanase antibody (Raybiotech, Cat. IP-14-155) to capture recombinant heparanase. Directly coated heparanase was detected in three separate plates by mouse (InSight Cat. INS-26-1-0000), goat (Santa Cruz, Cat. sc26136) or rabbit (Raybiotech, Cat. IP-14-155) anti-heparanase antibodies, and quantified using appropriate secondary antibodies. Antibody captured heparanase was detected using mouse anti-heparanase (Insight Cat. INS-26-1-0000). At the end of the immunisation program, fusions were performed using mouse myeloma cells and lymphocytes isolated from the spleens and lymph nodes of the immunised mice by means of electroporation, as described in Example 2.
(§3) Initial screening to detect antibodies binding to human heparanase in both direct coating and antibody capture ELISAs as described above identified 800 hybridomas for further testing; 535 IgG2 from Campaign 1 and 2 and 265 IgG4 from Campaign 2. Enzyme inhibition assays and cross species binding to cynomolgus and murine heparanase, in an antibody capture ELISA, identifed 12 antibodies that were taken forward for sub-cloning to provide purified antibodies for further analysis. Subsequently, confirmation of activity against human heparanase (FIGS. 3 and 4) and inhibition of recombinant cynomolgus and murine heparanase activity in the HS-cryptate degradation assay (FIG. 5a-c), together with sequence analysis, identified 8 antibodies that are described in the table below.

[2] = molecular target: T4, recombinant heparanase captured with rabbit anti-heparanase antibody; assay: ELISA binding to antibody-captured heparanase; conditions: antibody capture
Experimental: as §2, §3

Row | Binding to heparanase Cyno (cynomolgus heparanase) [OD units] | Binding to heparanase Human (human heparanase) [OD units] | Binding to heparanase Mouse (murine heparanase) [OD units] | Binding to direct coated heparanase [1] [OD units] | Binding to captured heparanase [2] [OD units] | Molecule
1 | 1.06 | 0.68 | 0.58 | 3.78 | 6.0 | 7B9.1: human anti-heparanase monoclonal antibody, G4λ; VH SEQ ID NO 22, VL SEQ ID NO 24 (antibody, listed as Homo Sapiens, V domains shown) VH: QVQLVESGGGVVQPGRSLRLSCAASGFTFSSYGMHWVRQAPGKGLEWVAVIWYDGSNKYYADSVKGRFTISRDNSKNTLYLQMNSLRAEDTAVYYCAREGAPYSSSDAFDIWGQGTMVTVSS VL: QSVLTQPPSVSGAPGQRVTISCTGSSSNIGANYDVHWYQQLPGTAPKLLIYGDNNRPSGVPDRFSGSKSGTSASLAITGLQAEDEADYYCQSYDSSLSGSVFGGGTKLTVL
2 | 1.64 | 1.84 | 0.61 | 3.63 | 3.82 | 16G1.1: human anti-heparanase monoclonal antibody, G4κ; VH SEQ ID NO 14, VL SEQ ID NO 16 (antibody, listed as Homo Sapiens, V domains shown) VH: QVQLVESGGGVVQPGRSLRLSCAASGFTFSSYGMHWVRQAPGKGLEWVAVIWYDGSNKYYADSVKGRFTISRDNSKNTLNLQMNSLRAEDTAVYYCGRDPGTYHYYYHGMDVWGQGTTVTVSS VL: YIVMTQSPLSLPVTPGEPASISCRSSQSLLHSNGYNFLDWYLQKPGQSPQLLIYLGSNRASGVPDRFSGSGSGTDFTLKINRVEAEDVGVYYCMQALQTPITFGQGTRLEIK
